T1: Flag-tagged Tsg101, wild type (UniProt Q61187)
T1 sequence: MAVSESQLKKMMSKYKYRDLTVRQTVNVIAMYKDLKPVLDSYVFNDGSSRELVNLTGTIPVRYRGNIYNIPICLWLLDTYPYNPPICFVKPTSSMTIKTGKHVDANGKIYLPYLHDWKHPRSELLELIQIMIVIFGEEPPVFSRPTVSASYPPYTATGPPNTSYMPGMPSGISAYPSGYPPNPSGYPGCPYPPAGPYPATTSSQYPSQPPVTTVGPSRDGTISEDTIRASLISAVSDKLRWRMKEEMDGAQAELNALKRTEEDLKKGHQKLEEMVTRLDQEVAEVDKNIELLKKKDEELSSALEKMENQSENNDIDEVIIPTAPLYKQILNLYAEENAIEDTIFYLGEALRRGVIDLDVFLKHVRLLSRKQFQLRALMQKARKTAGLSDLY

T2: endogenous Tsg101 of HEK-293T cells, Q99816
T2 chain: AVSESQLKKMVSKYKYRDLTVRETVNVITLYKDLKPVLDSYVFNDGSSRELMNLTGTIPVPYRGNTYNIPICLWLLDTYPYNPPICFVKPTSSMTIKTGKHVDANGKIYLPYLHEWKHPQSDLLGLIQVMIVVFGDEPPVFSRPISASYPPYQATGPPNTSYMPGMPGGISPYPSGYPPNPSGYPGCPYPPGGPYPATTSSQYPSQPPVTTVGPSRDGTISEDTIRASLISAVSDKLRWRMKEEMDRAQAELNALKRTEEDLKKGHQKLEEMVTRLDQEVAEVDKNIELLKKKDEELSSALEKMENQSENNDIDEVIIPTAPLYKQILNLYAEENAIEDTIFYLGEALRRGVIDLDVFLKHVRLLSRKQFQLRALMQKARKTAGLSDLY

T3: Flag-tagged Tsg101, wild type, Q61187
T3 chain: T1 sequence

T4: Flag-tagged Tsg101, wild type (murine) (UniProt Q61187)
T4 sequence (looked up): T1 sequence

B1: Ta1 ΔPTAP/PSAP (HA-tagged hTa1 with the PTAP motifs deleted) (protein)
chain: MPLFFRKRKPSEEARKRLEYQMCLAKEAGADDILDISKCELSEIPFGAFATCKVLQKKVLIVHTNHLTSLLPKSCSLLSLATIKVLDLHDNQLTALPDDLGQLTALQVLNVERNQLMQLPRSIGNLTQLQTLNVKDNKLKELPDTVGELRSLRTLNISGNEIQRLPQMLAHVRTLEMLSLDASAMVYPPREVCGAGTAAILQFLCKESGLEYYPPSQYLLPILEQDGIENSRDSPDGPTDRFSREELEWQNRFSDYEKRKEQKMLEKLEFERRLELGQREHTQLLQQSSSQKDEILQTVKEEQSRLEQGLSEHQRHLDAERQRLQEQLKQTEQNISSRIQKLLQDNQRQKKSSEILKSLENERIRMEQLMSITQEETESLRRRDVASAMQQMLTESCKNRLIQMAYESQRQNLVQQACSSMAEMDERFQQILSWQQMDQNKAISQILQESAMQKAAFEALQVKKDLMHRQIRSQIKLIETELLQLTQLELKRKSLDTESLQEMISEQRWALSSLLQQLLKEKQQREEELREILTELEAKSETRQENYWLIQYQRLLNQKPLSLKLQEEGMERQLVALLEELSAEHYLPIFAHHRLSLDLLSQMSPGDLAKVGVSEAGLQHEILRRVQELLDAARIQPELKPPMGEVVPAELEVQASECVVCLEREAQMIFLNCGHVCCCQQCCQPLRTCPLCRQDIAQRLRIYHSS
B2: ΔCC-hTa1 (HA-tagged hTa1 with the coiled-coil deleted) (protein)
chain: MPLFFRKRKPSEEARKRLEYQMCLAKEAGADDILDISKCELSEIPFGAFATCKVLQKKVLIVHTNHLTSLLPKSCSLLSLATIKVLDLHDNQLTALPDDLGQLTALQVLNVERNQLMQLPRSIGNLTQLQTLNVKDNKLKELPDTVGELRSLRTLNISGNEIQRLPQMLAHVRTLEMLSLDASAMVYPPREVCGAGTAAILQFLCKESGLEYYPPSQYLLPILEQDGIENSRDSPDGPTDRFSREELEWQNRFSDYEKRKEQKMLEKLEFERRLELGQREHTQLLQQSSSQKDEILQTVKEEQSRLEQGLSEHQRHLDAERQRLQEQLKQTEQNISSRIQKLLQDNQRQKKSSEILKSLENERIRMEQLMSITQEETESLRRRDVASAMQQMLTESCKNRLIQMAYESQRQNLVQQACSSMAEMDERFQQILSWQQMDQNKAISQILQESAMQKAAFEALQVKKDLMHRQIRSQIKLEELSAEHYLPIFAHHRLSLDLLSQMSPGDLAKVGVSEAGLQHEILRRVQELLDAARIQPELKPPMGEVVTPTAPQEPPESVRPSAPPAELEVQASECVVCLEREAQMIFLNCGHVCCCQQCCQPLRTCPLCRQDIAQRLRIYHSS
B3: HA-tagged human Ta1, wild type (enzyme, not shown: small tags and cut ends)
chain: MPLFFRKRKPSEEARKRLEYQMCLAKEAGADDILDISKCELSEIPFGAFATCKVLQKKVLIVHTNHLTSLLPKSCSLLSLATIKVLDLHDNQLTALPDDLGQLTALQVLNVERNQLMQLPRSIGNLTQLQTLNVKDNKLKELPDTVGELRSLRTLNISGNEIQRLPQMLAHVRTLEMLSLDASAMVYPPREVCGAGTAAILQFLCKESGLEYYPPSQYLLPILEQDGIENSRDSPDGPTDRFSREELEWQNRFSDYEKRKEQKMLEKLEFERRLELGQREHTQLLQQSSSQKDEILQTVKEEQSRLEQGLSEHQRHLDAERQRLQEQLKQTEQNISSRIQKLLQDNQRQKKSSEILKSLENERIRMEQLMSITQEETESLRRRDVASAMQQMLTESCKNRLIQMAYESQRQNLVQQACSSMAEMDERFQQILSWQQMDQNKAISQILQESAMQKAAFEALQVKKDLMHRQIRSQIKLIETELLQLTQLELKRKSLDTESLQEMISEQRWALSSLLQQLLKEKQQREEELREILTELEAKSETRQENYWLIQYQRLLNQKPLSLKLQEEGMERQLVALLEELSAEHYLPIFAHHRLSLDLLSQMSPGDLAKVGVSEAGLQHEILRRVQELLDAARIQPELKPPMGEVVTPTAPQEPPESVRPSAPPAELEVQASECVVCLEREAQMIFLNCGHVCCCQQCCQPLRTCPLCRQDIAQRLRIYHSS

Columns and labels:
[1] = target: T1, Flag-tagged Tsg101, wild type
[2] = target: T2, endogenous Tsg101 of HEK-293T cells, …
[3] = target: T3, Flag-tagged Tsg101, wild type, Q61187
[4] = target: T4, Flag-tagged Tsg101, wild type (murine); test: cell-based or functional assay

Molecule | in vitro ubiquitylation of immunoprecipitated Tsg101 (125I-ubiquitin) [1] | HIV-1 infectivity, single-cycle infection assay [2] | other results
C675A-hTa1 (HA-tagged) | only background ubiquitylation was observed with two RING mutants of hTa1 | – | –
H695A-Ta1 (HA-tagged) | only background ubiquitylation was observed with two RING mutants of hTa1 | – | –
B1 | – | mediated a relatively mild effect on viral infectivity | –
B2 | – | RING or CC mutants of hTa1 potently inhibited HIV-1 infectivity even in the absence of an ectopic Tsg101 | –
B3 | – | overexpression of hTa1 reduces infectivity by approximately 40% | HIV-1 infectivity, single-cycle infection assay [3]: when combined with an ectopic Tsg101, hTa1 exerted a significantly greater inhibitory effect; in vitro ubiquitylation of immunoprecipitated Tsg101 (125I-ubiquitin) [3]: Substantial Tsg101 ubiquitylation was observed in complexes pre-incubated with WT-hTa1; decrease in GFP-Gag secretion into virus-like particles (VLPs), HEK-293T cells [4]: > 90%
